Laboratory results published in US20190055314A1 (ADAGENE, published 2019).
Numbering of substitutions follows the chain as printed. Read-outs that look alike come from different tables or passages of the source.

Tests used:
[1] = molecular target: T1, full-length human CD137 on the cell surface (human, UniProt Q07011 18-255); test: flow cytometry, yeast display [Cont.]
T1 construct: also called Human WT

[2] = molecular target: T2, Hu_CRD3-CRD4 (human, UniProt Q07011 87-159, limits assumed); test: flow cytometry, yeast display [Cont.]
T2 construct: also called two CRD units (CRD3-CRD4) of human CD137

[3] = molecular target: T3, Hu_CRD1-CRD2-CRD3 (human, UniProt Q07011 24-118, limits assumed); test: flow cytometry, yeast display [Cont.]
T3 construct: also called three CRD units (CRD1-CRD2-CRD3) of human CD137

[4] = molecular target: T4, Hu_CRD2-CRD3-CRD4 (human, UniProt Q07011 46-159, limits assumed); test: flow cytometry, yeast display [Cont.]
T4 construct: also called three CRD units (CRD2-CRD3-CRD4) of human CD137

[5] = molecular target: T5, Hu_CRD1-CRD2 (human, UniProt Q07011 24-86, limits assumed); test: flow cytometry, yeast display [Cont.]
T5 construct: also called two CRD units (CRD1-CRD2) of human CD137

[6] = molecular target: T6, Hu_CRD2-CRD3 (human, UniProt Q07011 46-118, limits assumed); test: flow cytometry, yeast display [Cont.]
T6 construct: also called two CRD units (CRD2-CRD3) of human CD137

[7] = molecular target: T7, Hu_CRD4 (human, UniProt Q07011 119-159, limits assumed); test: flow cytometry, yeast display [Cont.]
T7 construct: also called human CD137 CRD4
T7 chain: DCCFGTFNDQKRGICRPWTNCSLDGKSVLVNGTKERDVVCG

[8] = molecular target: T8, Hu_CRD3 (human, limits assumed); test: flow cytometry, yeast display [Cont.]
T8 construct: also called human CD137 CRD3
T8 chain: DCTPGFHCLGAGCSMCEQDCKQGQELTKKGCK

[9] = molecular target: T9, CD137-hisFc fusion protein (Sino Biological Cat 10041-H03H) (human, UniProt Q07011 24-186); test: BLI Octet, Fab
T9 construct: Bought; also called recombinant human CD137 (fused with human Fc and His tag); not shown: His tag and human Fc

[10] = molecular target: T9, CD137-hisFc fusion protein (Sino …); test: BLI Octet, Fab; remark: listed apart in the source
[11] = molecular target: T10, mouse CD137 fused with human FC fragment (mouse, UniProt P20334 24-178, limits assumed); test: ELISA, Fab captured by anti-human IgG (Fab specific), CD137-Fc added, anti-human Fc-HRP
T10 construct: also called mouse CD137-Fc; not shown: human Fc fragment
T10 sequence: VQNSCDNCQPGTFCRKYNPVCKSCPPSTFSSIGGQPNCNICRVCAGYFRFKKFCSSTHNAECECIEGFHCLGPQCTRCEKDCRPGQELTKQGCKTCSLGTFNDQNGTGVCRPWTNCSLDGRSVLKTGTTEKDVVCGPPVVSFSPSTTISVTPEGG

[12] = molecular target: T1, full-length human CD137 on the cell …; test: cell-based or functional assay
[13] = molecular target: T11, full-length mouse CD137 on the cell surface (mouse, UniProt P20334 24-178); test: flow cytometry, HEK293F cells expressing CD137 or mutant
T11 sequence: T10 sequence

[14] = molecular target: T1, full-length human CD137 on the cell …; test: as above
[15] = molecular target: T5, Hu_CRD1-CRD2; test: flow cytometry, yeast display [Cont.]; remark: listed apart in the source
[16] = molecular target: T6, Hu_CRD2-CRD3; test: flow cytometry, yeast display [Cont.]; remark: listed apart in the source
[17] = molecular target: T7, Hu_CRD4; test: flow cytometry, yeast display [Cont.]
[18] = molecular target: T8, Hu_CRD3; test: flow cytometry, yeast display [Cont.]
[19] = molecular target: T1, full-length human CD137 on the cell …; test: flow cytometry, HEK293F
[20] = molecular target: T12, rat CD137 on the cell surface (rat, UniProt Q4W8J3 24-258); test: flow cytometry, HEK293F cells expressing CD137
T12 sequence: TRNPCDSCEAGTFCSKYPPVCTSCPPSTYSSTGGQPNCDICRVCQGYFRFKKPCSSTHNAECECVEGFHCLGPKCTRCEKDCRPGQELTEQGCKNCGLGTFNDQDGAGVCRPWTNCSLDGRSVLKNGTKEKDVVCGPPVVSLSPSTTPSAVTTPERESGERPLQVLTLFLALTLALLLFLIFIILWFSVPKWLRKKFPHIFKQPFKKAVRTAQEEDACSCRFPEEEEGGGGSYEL

[21] = molecular target: T2, Hu_CRD3-CRD4; test: flow cytometry, yeast display [Cont.]; remark: listed apart in the source
[22] = molecular target: T3, Hu_CRD1-CRD2-CRD3; test: flow cytometry, yeast display [Cont.]; remark: listed apart in the source
[23] = molecular target: T4, Hu_CRD2-CRD3-CRD4; test: flow cytometry, yeast display [Cont.]; remark: listed apart in the source
[24] = molecular target: T13, human CD137-His6 (Sino Biological #10041-H08H) (human, UniProt Q07011 24-186); test: SPR Biacore, IgG captured
T13 construct: Bought; also called human CD137 protein; not shown: His6 tag

[25] = molecular target: T14, mouse CD137 protein (Biacore) (mouse, UniProt P20334 24-178, limits assumed); test: SPR Biacore
T14 construct: Construct used as SPR analyte not described
T14 sequence: T10 sequence

[26] = molecular target: T15, Hu_GTF34AAA (human, UniProt Q07011 18-255); test: flow cytometry, HEK293F cells expressing CD137 or mutant [Cont.]
T15 construct: On HEK293F; also called GFT34AAA
T15 chain: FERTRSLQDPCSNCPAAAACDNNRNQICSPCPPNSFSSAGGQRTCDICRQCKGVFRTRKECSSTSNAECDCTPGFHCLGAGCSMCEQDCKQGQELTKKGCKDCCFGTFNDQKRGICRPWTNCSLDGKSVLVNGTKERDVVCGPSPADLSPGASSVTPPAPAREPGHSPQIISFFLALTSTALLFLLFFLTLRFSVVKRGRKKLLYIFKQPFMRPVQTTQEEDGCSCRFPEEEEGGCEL

[27] = molecular target: T16, Hu_FH92AA (human, UniProt Q07011 18-255); test: as above
T16 construct: On HEK293F

[28] = molecular target: T17, Hu_FSS53AAA (human, UniProt Q07011 18-255); test: as above
T17 construct: On HEK293F
T17 chain: T15 chain with A17G, A18T, A19F, F36A, S37A, S38A

[29] = molecular target: T18, Hu_GT150AA (human, UniProt Q07011 18-255); test: as above
T18 construct: On HEK293F

[30] = molecular target: T19, Hu_PW135AA (human, UniProt Q07011 18-255); test: as above
T19 construct: On HEK293F

[31] = molecular target: T20, Hu_FN125AA (human, UniProt Q07011 18-255); test: as above
T20 construct: On HEK293F

[32] = molecular target: T10, mouse CD137 fused with human FC fragment; test: ELISA, coated CD137-Fc
[33] = molecular target: T21, Hu_GQ109AA (human, UniProt Q07011 18-255); test: flow cytometry, HEK293F
T21 construct: On HEK293F

[34] = molecular target: T22, Hu_TN137AA (human, UniProt Q07011 18-255); test: flow cytometry, HEK293F
T22 construct: On HEK293F

[35] = molecular target: T23, Hu_EL111AA (human, UniProt Q07011 18-255); test: flow cytometry, HEK293F
T23 construct: On HEK293F

[36] = molecular target: T11, full-length mouse CD137 on the cell …; test: flow cytometry, yeast display [Cont.]
[37] = molecular target: T1, full-length human CD137 on the cell …; test: flow cytometry, yeast display [Cont.]; remark: listed apart in the source
[38] = molecular target: T24, Hu_CRD2 (human, UniProt Q07011 46-86, limits assumed); test: flow cytometry, yeast display [Cont.]
T24 construct: also called human CD137 CRD2
T24 chain: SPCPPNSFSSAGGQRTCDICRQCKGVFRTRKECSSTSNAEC

B1: mouse CD137L (ligand, UniProt P41274 104-309, looked up)
chain: RTEPRPALTITTSPNLGTRENNADQVTPVSHIGCPNTTQQGSPVFAKLLAKNQASLCNTTLNWHSQDGAGSSYLSQGLRYEEDKKELVVDSPGLYYVFLELKLSPTFTNTGHKVQGWVSLVLQAKPQVDDFDNLALTVELFPCSMENKLVDRSWSQLLLLKAGHRLSVGLRAYLHGAQDAYRDWELSYPNTTSFGLFLVKPDNPWE
binding result [1]: no binding | % in upper right quadrant [2]: 0.24% | Mean [2]: 10000 | % in upper right quadrant [3]: 0.19% | Mean [3]: 4700 | % in upper right quadrant [4]: 0.026% | Mean [4]: 3260 | % in upper right quadrant [5]: 0.16% | Mean [5]: 43800 | % in upper right quadrant [6]: 0.19% | Mean [6]: 15900 | % in upper right quadrant [7]: 0.15% | Mean [7]: 9270 | % in upper right quadrant [8]: 0.2% | Mean [8]: 46000

B2: Fab 5351 (Fab, V domains shown)
VH: EVQLVESGGGLVQPGGSLRLSCAASGYSITSGHYWAWIRQAPGKGLEWVSSISGYGSTTYYADSVKGRFTISRDNSKNTLYLQLNSLRAEDTAVYYCARGGSDAVLGDWFAYWGQGTLVTVSS
VL: DIQLTQSPSSLSASVGDRVTITCRASQGIGSFLAWYQQKPGKAPKLLIYDASNLETGVPSRFSGSGSGTDFTLTISSLQPEDFATYYCQQGYYLWTFGQGTKVEIKR
notes: Fab from E. coli; also called VH25/VL25
Kd [9]: 7.3 nM | koff [9]: 0.0034 s⁻¹ | kon [9]: 470000 M⁻¹ s⁻¹ | Kd [10]: 7.29 nM | koff [10]: 0.0034 s⁻¹ | kon [10]: 466000 M⁻¹ s⁻¹ | binding result [11]: no binding

B3: AC1121 (antibody, V domains shown)
VH: QVQLQQWGAGLLKPSETLSLTCAVYGGSFSGYYWSWIRQSPEKGLEWIGEINHGGYVTYNPSLESRVTISVDTSKNQFSLKLSSVTAADTAVYYCARDYGPGNYDWYFDLWGRGTLVTVSS
VL: EIVLTQSPATLSLSPGERATLSCRASQSVSSYLAWYQQKPGQAPRLLIYDASNRATGIPARFSGSGSGTDFTLTISSLEPEDFAVYYCQQRSNWPPALTFGGGTKVEIK
NFκB reporter: EC50 (nM) With Cross-Linker [12]: 2.51 nM | NFκB reporter: EC50 (nM) Without Cross-Linker [12]: 1.27 nM | binding result [13]: no binding (tested: 100 nM (as in Example 5)) | % in upper right quadrant [14]: 27.8% | % in upper right quadrant [15]: 51.4% | Mean [15]: 26000 | % in upper right quadrant [16]: 0.12% | Mean [16]: 12800 | % in upper right quadrant [17]: 0.15% | Mean [17]: 6770 | % in upper right quadrant [18]: 0.22% | Mean [18]: 13900 | Kd [19]: 3.3 nM | binding result [20]: no binding (tested: 100 nM (text paragraph 220)) | % in upper right quadrant [21]: 0.18% | Mean [21]: 3460 | % in upper right quadrant [22]: 57.2% | Mean [22]: 46500 | % in upper right quadrant [23]: 0.42% | Mean [23]: 29500 | Kd [24]: 9.6 nM | binding result [25]: no binding | Mean [26]: 8620 | binding result [27]: binds | Mean [28]: 16700 | Mean [29]: 21300 | Mean [30]: 53900 | Mean [31]: 23100 | binding result [32]: no binding | binding result [33]: binds | binding result [34]: binds | binding result [35]: binds | % in upper right quadrant [36]: 0.4% | Mean [36]: 13100 | % in upper right quadrant [37]: 32.2% | Mean [37]: 93600 | % in upper right quadrant [38]: 0.26% | Mean [38]: 4050
